B1: KLHL12 (parent)
chain: LDYTADEDGVWYSVAPMNVRRGLA

Variants of: B1
Assay: protein stability index of a GFP-peptide fusion (GPS, HEK-293T) (PSI 1-6); higher = more stable
Details: c terminus: a fixed tail appended
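Further: lentivirally expressed fusions sorted by FACS into six bins by GFP to DsRed ratio, PSI derived from sequencing read proportions per bin multiplied by bin number.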

Protein stability index: each site, then its substitutions
P16: C 1.72; D 3.07; Y 2.56; E 3.28; I 1.79; K 1.95; G 2.08; T 2.62; M 1.88; V 1.85; N 2.24; Q 2.16; L 2.41; A 2.33; H 2.57; F 1.84; W 1.59; S 1.79; R 2.25
R21: G 1.78; P 1.8; F 2.85; S 1.72; N 1.65; L 2.93; W 1.71; Y 1.47; I 2.04; H 1.75; A 2.39; Q 1.71; K 1.8; D 1.88; V 2.19; M 1.32; C 2.63; T 2.72; E 2.21
R20: E 3.32; I 1.98; M 2.4; S 2.31; G 1.72; Q 1.89; C 1.54; V 2.49; Y 1.97; L 2.26; P 1.81; D 2.65; T 2.69; A 2.1; K 1.89; W 2.05; F 1.7; H 1.75; N 1.74
V19: S 2.62; G 1.95; L 2.22; A 1.93; H 2.98; Y 1.78; C 1.7; N 2.72; F 1.78; I 2.42; P 2.11; E 1.86; K 2.65; W 1.66; R 2.61; T 1.91; D 2.32; M 1.52; Q 2.49
G22: P 2.21; R 2.15; E 2.17; S 1.72; T 2.31; L 2; V 1.35; H 1.56; M 1.95; A 1.5; Y 2.17; I 2.16; K 2.23; W 1.48; Q 2.22; D 1.79; C 2.27; F 1.51; N 1.62
L23: E 2.41; S 2.66; N 2.77; P 2.35; M 2.38; F 1.83; C 1.93; V 1.79; T 2.19; A 2.68; D 2.46; G 2.29; R 2.82; K 2; Q 2.9; H 2.28; I 1.74
A15: E 2.29; N 2.33; W 1.57; D 2.32; R 2.19; G 2.06; H 1.7; F 1.82; P 2.76; T 2.04; L 2.08; K 2.13; Q 2.24; V 1.76; I 1.76; Y 2.04; M 1.76; S 1.83
N18: F 2.19; K 1.54; D 2.2; G 2.54; I 2.47; H 1.95; L 1.97; E 1.83; W 2.37; A 1.92; C 1.35; M 1.46; T 1.77; Q 1.58; P 2.57; S 2.01; V 2.35; Y 2.24
M17: Q 2.46; P 2.58; T 2.48; V 2.59; D 2.47; W 1.89; E 2.59; A 2.45; L 1.74; I 3.28; K 2.71; F 1.55; Y 1.86; C 2.01; N 2.54; G 2.28; S 2.64; H 2.41; R 3.34

Source: the supplement of paper PMC10567573
